Data from patent US20230365956A1 (SYSTIMMUNE, published 2023).

Columns and labels:
[1] = target: T1, SARS-CoV-2 RBD variant Lambda (L452Q, F490S) (Sino Biological) (SARS-CoV-2, UniProt P0DTC2 319-541); experiment: BLI, affinity format: response at highest analyte concentration
T1 construct: domain: RBD

[2] = target: T2, SARS-CoV-2 RBD variant Gamma (K417T, E484K, N501Y) (Sino Biological) (SARS-CoV-2, UniProt P0DTC2 319-541); experiment: as above
T2 construct: domain: RBD

[3] = target: T3, SARS-CoV-2 RBD variant Alpha (N501Y) (Sino Biological) (SARS-CoV-2, UniProt P0DTC2 319-541); experiment: as above
T3 construct: domain: RBD

[4] = target: T4, SARS-CoV-2 RBD variant Delta (L452R, T478K) (Sino Biological) (SARS-CoV-2, UniProt P0DTC2 319-541); experiment: as above
T4 construct: domain: RBD

[5] = target: T5, SARS-CoV-2 RBD variant Kappa (L452R, E484Q) (Sino Biological) (SARS-CoV-2, UniProt P0DTC2 319-541); experiment: as above
T5 construct: domain: RBD

[6] = target: T6, SARS-CoV-2 RBD, wild type (Sino Biological) (SARS-CoV-2, UniProt P0DTC2 319-541); experiment: as above
T6 construct: domain: RBD

[7] = target: T7, SARS-CoV-2 RBD variant Beta (K417N, E484K, N501Y) (Sino Biological) (SARS-CoV-2, UniProt P0DTC2 319-541); experiment: as above
T7 construct: domain: RBD

[8] = target: T1, SARS-CoV-2 RBD variant Lambda (L452Q, …); experiment: BLI, avidity format: biotinylated RBD on SA sensor, binder in solution
[9] = target: T2, SARS-CoV-2 RBD variant Gamma (K417T, …); experiment: as above
[10] = target: T3, SARS-CoV-2 RBD variant Alpha (N501Y) …; experiment: as above
[11] = target: T4, SARS-CoV-2 RBD variant Delta (L452R, …); experiment: as above
[12] = target: T5, SARS-CoV-2 RBD variant Kappa (L452R, …); experiment: as above
[13] = target: T6, SARS-CoV-2 RBD, wild type (Sino …); experiment: as above
[14] = target: T7, SARS-CoV-2 RBD variant Beta (K417N, …); experiment: as above
[15] = target: T1, SARS-CoV-2 RBD variant Lambda (L452Q, …); experiment: BLI, affinity format: binder on AHC sensor, RBD in solution
[16] = target: T2, SARS-CoV-2 RBD variant Gamma (K417T, …); experiment: as above
[17] = target: T3, SARS-CoV-2 RBD variant Alpha (N501Y) …; experiment: as above
[18] = target: T4, SARS-CoV-2 RBD variant Delta (L452R, …); experiment: as above
[19] = target: T5, SARS-CoV-2 RBD variant Kappa (L452R, …); experiment: as above
[20] = target: T6, SARS-CoV-2 RBD, wild type (Sino …); experiment: as above
[21] = target: T7, SARS-CoV-2 RBD variant Beta (K417N, …); experiment: as above
[22] = target: T1, SARS-CoV-2 RBD variant Lambda (L452Q, …); experiment: BLI, avidity format: response at highest analyte concentration
[23] = target: T2, SARS-CoV-2 RBD variant Gamma (K417T, …); experiment: as above
[24] = target: T3, SARS-CoV-2 RBD variant Alpha (N501Y) …; experiment: as above
[25] = target: T4, SARS-CoV-2 RBD variant Delta (L452R, …); experiment: as above
[26] = target: T5, SARS-CoV-2 RBD variant Kappa (L452R, …); experiment: as above
[27] = target: T6, SARS-CoV-2 RBD, wild type (Sino …); experiment: as above
[28] = target: T7, SARS-CoV-2 RBD variant Beta (K417N, …); experiment: as above

B1: Tixagevimab (antibody, V domains shown)
VH: QMQLVQSGPEVKKPGTSVKVSCKASGFTFMSSAVQWVRQARGQRLEWIGWIVIGSGNTNYAQKFQERVTITRDMSTSTAYMELSSLRSEDTAVYYCAAPYCSSISCNDGFDIWGQGTMVTVSS
VL: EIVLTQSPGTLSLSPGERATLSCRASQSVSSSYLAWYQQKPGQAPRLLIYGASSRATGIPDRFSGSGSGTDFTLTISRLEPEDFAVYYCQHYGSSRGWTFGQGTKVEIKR
Q: For B1, which Response [1] is on record?
A: 0.411 nm shift

Q: And the Response [2]?
A: 0.474 nm shift

Q: And the Response [3]?
A: 0.552 nm shift

Q: What about the Response [4] of the same binder?
A: 0.513 nm shift

Q: What about the Response [5] of the same binder?
A: 0.472 nm shift

Q: And the Response [6]?
A: 0.477 nm shift

Q: And the Response [7]?
A: 0.46 nm shift

Q: What about the Kd [8] of the same binder?
A: < 0.001 nM

Q: What about the koff [8] of the same binder?
A: < 1e-07 s⁻¹

Q: And the kon [8]?
A: 362000 M⁻¹ s⁻¹

Q: What about the Kd [9] of the same binder?
A: < 0.001 nM

Q: And the koff [9]?
A: < 1e-07 s⁻¹

Q: What about the kon [9] of the same binder?
A: 376000 M⁻¹ s⁻¹

Q: What about the Kd [10] of the same binder?
A: < 0.001 nM

Q: And the koff [10]?
A: < 1e-07 s⁻¹

Q: And the kon [10]?
A: 447000 M⁻¹ s⁻¹

Q: And the Kd [11]?
A: 0.0303 nM

Q: And the koff [11]?
A: 1.28e-05 s⁻¹

Q: What about the kon [11] of the same binder?
A: 422000 M⁻¹ s⁻¹

Q: What about the Kd [12] of the same binder?
A: < 0.001 nM

Q: What about the koff [12] of the same binder?
A: < 1e-07 s⁻¹

Q: What about the kon [12] of the same binder?
A: 416000 M⁻¹ s⁻¹

Q: What about the Kd [13] of the same binder?
A: 0.0221 nM

Q: What about the koff [13] of the same binder?
A: 7.4e-06 s⁻¹

Q: And the kon [13]?
A: 335000 M⁻¹ s⁻¹

Q: And the Kd [14]?
A: < 0.001 nM

Q: And the koff [14]?
A: < 1e-07 s⁻¹

Q: And the kon [14]?
A: 440000 M⁻¹ s⁻¹

Q: And the Kd [15]?
A: 4.31 nM

Q: What about the koff [15] of the same binder?
A: 0.00337 s⁻¹

Q: What about the kon [15] of the same binder?
A: 782000 M⁻¹ s⁻¹

Q: What about the Kd [16] of the same binder?
A: 5.83 nM

Q: What about the koff [16] of the same binder?
A: 0.00484 s⁻¹

Q: And the kon [16]?
A: 830000 M⁻¹ s⁻¹

Q: What about the Kd [17] of the same binder?
A: 3.17 nM

Q: And the koff [17]?
A: 0.0026 s⁻¹

Q: And the kon [17]?
A: 821000 M⁻¹ s⁻¹

Q: What about the Kd [18] of the same binder?
A: 3.83 nM

Q: What about the koff [18] of the same binder?
A: 0.0043 s⁻¹

Q: And the kon [18]?
A: 1.12e+06 M⁻¹ s⁻¹

Q: And the Kd [19]?
A: 5.21 nM

Q: What about the koff [19] of the same binder?
A: 0.00469 s⁻¹

Q: And the kon [19]?
A: 900000 M⁻¹ s⁻¹

Q: And the Kd [20]?
A: 3.63 nM

Q: And the koff [20]?
A: 0.00406 s⁻¹

Q: And the kon [20]?
A: 1.12e+06 M⁻¹ s⁻¹

Q: And the Kd [21]?
A: 3.24 nM

Q: And the koff [21]?
A: 0.00318 s⁻¹

Q: What about the kon [21] of the same binder?
A: 981000 M⁻¹ s⁻¹

Q: What about the Response [22] of the same binder?
A: 1.76 nm shift

Q: What about the Response [23] of the same binder?
A: 1.58 nm shift

Q: What about the Response [24] of the same binder?
A: 1.35 nm shift

Q: What about the Response [25] of the same binder?
A: 1.3 nm shift

Q: What about the Response [26] of the same binder?
A: 1.54 nm shift

Q: What about the Response [27] of the same binder?
A: 1.7 nm shift

Q: And the Response [28]?
A: 1.14 nm shift
